Experiments:
pCdc25C (Homo sapiens) [1] = test: NMR titration; details: phospho-T5 of peptide (pT48)
trans-locked inhibitor = test: NMR titration; details: phospho-S3, trans-locked alkene isostere
FFpSPR = test: NMR titration; details: phospho-S3 of peptide
pCdc25C (Homo sapiens) [2] = test: ITC; details: phospho-T5 of peptide (pT48)

Binder | Kd (pCdc25C (Homo sapiens) [1]) | Kd (trans-locked inhibitor) | Kd (FFpSPR) | Kd (pCdc25C (Homo sapiens) [2])
ADEEKLPPGWEKRMSRSSGRVYYFNHITNASQWERPSGNSS [Pin1 (WW domain site, full-length Pin1) WW, Q13526] | 6 µM | 53 µM | 43 µM | 
ADEEKLPPGWEKRMSRSSGRVYYFNHITNASQWERPSGNSS [Pin1 WW domain (isolated) WW, Q13526] |  |  |  | 13 µM

Reference: PMC4610412
